Measured values taken from patent US11905559B2, “Materials and methods for controlling gene expression” (priority 2016, dated 2024).

Experiments:
guanine-riboswitch = details: previous in-line measurements; cited from earlier work
[1] = Force-ramp mechanical assay of the full-length xpt leader mRNA; type: physicochemical
Source text: A dual-beam high-resolution optical tweezers was built that can detect short-lived fluctuations at sub-milliseconds (<0.25 msec) time scale at a single base pair level, with high precision and accuracy. This instrument was used to investigate the conformational dynamics of the full-length (FL) guanine-responsive riboswitch (guanine-riboswitch) and its 69-nt aptamer domain present in the 5′-UTR of an xpt-pbuX operon in B. subtilis. It has been shown that the xpt leader mRNA selectively downregulates the gene expression by transcription termination in the presence of guanine (FIG. 17B). The FL xpt mRNA was subjected to mechanical assays in order to identify the terminator and an anti-terminator conformation. […] The unfolding trajectory (red curve) indicated the melting of the 35-nt terminator hairpin at 16.1±0.5 pN (n=1200 traces) with a transition distance, ΔXt˜15±3 nm. A second transition at 17.9±0.9 pN with a distance, ΔXa˜25-30 nm indicated the unfolding of the 69-nt aptamer. […] The terminator mutant (FL-mutant, FIGS. 17D-E) abolished the 16.0 pN transition, thus supporting the structural assignment.
The forces on the bead were recorded at an acquisition rate of 44 kHz. Data was collected from the stereo phone jacks on the ADC boards of the Tweezers instrument and sent to the host computer audio input for analysis by SignalScope program (Faber Acoustical, LLC). As shown in the plot, power spectral density is fitted with the Lorentzian fit to yield the corner frequency (fc) that was used to calculate the trap stiffness. This setup was used to perform three different mechanical reactions: force-ramp (FR), constant-force (CF) and force-jump (FJ) under a controlled force. In the force-ramp (FR) experiment, the trap was moved at 200 nm/s, which corresponded to a loading rate 7-8 pN/s. […] The force-ramp data is plotted as force vs. extension curves (FEC).

[2] = Constant-force / force-jump assay of the full-length riboswitch RNA; type: physicochemical
Source text: Moreover, as the successive traces were not reproducible, the anti-terminator conformation could not be assigned to the transitions. […] The function of the random structures can be presumed to destabilize the terminator hairpin and turn “ON” the gene expression. The un-bound trajectories are referred to as the “non-terminator” conformations to distinguish from the traditionally defined anti-terminator conformation. […] To assess the mode of allosteric modulation (tilt-equilibrium or induced-fit), the mechanical unfolding assay was performed in the presence of guanine salts ranging from 1 nM to 1 μM. […] Had this been the case, a gradual shift would have been observed in the equilibrium toward the terminator conformation according to the tilt-equilibrium model. […] Thus, at 16 pN, the terminator fluctuates between the open and the closed states, observed as Y*↔Y and Z*↔Z in FIG. 23A. […] The Keq˜0.1
[formula] implied that the hairpin preferred the open state (90%) at 16 pN (the Keq˜1 at 15.6 pN). The expression platform dynamics and the unfolding scheme are shown in FIGS. 27A-B. That the bi-stabilities are due to the terminator was further confirmed by subjecting the FL-mutant to similar cycles (FIG. 23B). […] The findings thus underscore that only the guanine induces a terminator conformation to the expression platform. Transition Y→Z* (ΔX=14±2.5 nm) indicated a complete unfolding of the aptamer (FIGS. 27A-B).
In a constant-force (CF) experiment, the RNA is held at a preset force through feedback control. The preset force typically fluctuated around the mean with a standard deviation ±0.15 pN. In this mode, data is recorded from 4-40 kHz to capture the fast intermediates. The plots are shown as extension vs. time (as in FIG. 6A). In force-jump (FJ) assay, the force is suddenly jumped from one force to another, and then held constant thereafter, as shown in FIGS. 23A-B.

## Nc1nc(N)c2[nH]cnc2n1 [DAP, 2,6-diaminopurine]
guanine-riboswitch
  Kd: ~10 µM

B1: FL xpt mRNA: full-length wild-type guanine riboswitch sequence comprising the aptamer domain and expression platform (SEQ ID NO: 12) (nucleic acid)
chain: AAUAUAAUAGGAACACUCAUAUAAUCGCGUGGAUAUGGCACGCAAGUUUCUACCGGGCACCGUAAAUGUCCGACUAUGGGUGAGCAAUGGAACCGCACGUGUACGGUUUUUUGUGAUAUCAGCAUUGCUUGCUCUUUAUUUGAGCGGGCAAUGCUUUUUUUAUUCUCAUAACGGAGGUAGACAGGAUG
modifications: aptamer_domain (14)..(82); expression_platform (83)..(188)
[1]; 1 μM guanine
  Force of second transition (unfolding of the 69-nt aptamer): 17.9±0.9 pN
  Transition distance ΔXa (aptamer): 25-30 nm
  Transition distance ΔXt (terminator): ~15±3 nm
[1]; 1 μM guanine, n=1200 traces
  Melting force of the 35-nt terminator hairpin: 16.1±0.5 pN
[2]; 15.6 pN, +G
  Keq of terminator hairpin: ~1
[2]; 16 pN, +G
  Keq of terminator hairpin: ~0.1
  Terminator hairpin in the open state: 90%
  ΔX of transition Y→Z* (complete unfolding of the aptamer): 14±2.5 nm
[2]; 16 pN, +G (FIG. 23A: 200 nM guanine)
  Change in extension of terminator open/closed bi-stabilities (Y*↔Y, Z*↔Z): 15±1.7 nm

B2: FL-mutant: full-length mutant guanine riboswitch sequence comprising the aptamer domain and expression platform (SEQ ID NO: 13) (nucleic acid)
chain: AAUAUAAUAGGAACACUCAUAUAAUCGCGUGGAUAUGGCACGCAAGUUUCUACCGGGCACCGUAAAUGUCCGACUAUGGGUGAGCAAUGGAACCGCACGUGUACGGUUUUUUGUGAUAUCAGCAUUGCUUGCUCUUUAUUUGAGCGGCGAAUCGUUUUUUUAUUCUCAUAACGGAGGUAGACAGGAUG
modifications: aptamer_domain (14)..(82); expression_platform (83)..(188)
[1]; force-extension curve
  16.0 pN terminator transition (in words): abolished
[2]; 75 traces, 200 nM guanine
  Terminator hopping (in words): without exhibiting a terminator hopping
